Assay results as given in patent US20240026407A1, “MODIFICATION OF SAPONINS” (GLAXOSMITHKLINE BIOLOGICALS SA, priority 2020, published 2024).
Residue numbers refer to the chain shown, from its start. In names and notes the source's numbering stands.

How the values were obtained:
[1] = Example 9: screening of rhamnosidase variants for derhamnosylation of saponins in crude bark extract; assay type: biochemical, Quillaja saponaria; settings: for Cumulative FIOP from WT: estimate
Protocol: Libraries of genetic variants encoding mutations in the wild type Kribbella flavida rhamnosidase (SEQ ID No. 1017) were prepared using molecular biology techniques, enzymes were prepared linked to a C-terminally located His-tag. Single monoclonal colonies were grown in 400 ul of expression medium and protein expressed. Cell pellets were lysed in 200 ul of the relevant buffer (Table 17).
Lysate was diluted appropriately in the relevant buffer to allow a lysate loading of the indicated % loading (1% loading corresponds to use of 2 ul original lysate in a 200 ul reaction).
Crude bark extract (CBE) obtained by aqueous extraction of Quillaja saponaria and containing at least 2.80 mg/ml QS-21 (by HPLC-UV) was adjusted to pH 6 by dropwise addition of 2M NaOH with stirring. The relevant concentration of the relevant glucosidase was added. The appropriate relative volume of pH 6 CBE (160 ul (for 80%) or 150 ul (for 75%)) was added to each well of the reaction plate. The reaction plate was sealed and incubated at the relevant temperature and time.
The reaction plate was quenched by adding 200 uL of MeCN (2% AcOH, 1 mg/mL hexanophenone) to each well of the plates. The quenched reaction plate was re-sealed and incubated at 20 deg C. with shaking for 10 min. The reaction plate was then centrifuged (10 min, 4 degC).
200 uL was transferred from each well of the quenched plate to the corresponding wells of a fresh 96 well plate and sealed. The plate was analysed by UV HPLC with the method described in Example 4.
Three key peaks of interest are apparent using this chromatography: Left Peak (retention time approximately 2.30-2.35 min) comprising mainly QS-17 family components; Middle Peak (retention time approximately 2.37-2.42 min) comprising mainly QS-18 family components and desglucosyl-QS-17 family components; and Right Peak (retention time approximately 2.44-2.50 min) comprising mainly QS-21 family components. Peak identity was supported by MS/MS.
Enzyme activity is calculated as the % conversion of the Left Peak present in the crude bark extract: […]

[2] = Example 10: derhamnosylation of saponins in crude bark extract (50%) using WT and engineered rhamnosidases R1 to R5; assay type: biochemical, Quillaja saponaria; settings: 50% CBE, 35 degC; for % Right Peak: starting CBE 26; for % Left Peak: starting CBE 30; for % Middle Peak: starting CBE 44
Protocol: Lyophilised powders from clarified cell lysate expressing glucosidases (from Example 8 WT glucosidase and engineered glucosidase polypeptides G1 to G5) and rhamnosidases (from Example 9 WT rhamnosidase and engineered rhamnosidase polypeptides R1 to R5) were dissolved in 200 mM sodium acetate aqueous solution at pH 5.8 to prepare the enzyme solutions at 4 fold the final reaction concentration as shown in Tables 19 and 20.
Each rhamnosidase solution was combined with an equal volume of 200 mM sodium acetate aqueous solution at pH 5.8 and separately with an equal volume of 200 mM sodium acetate aqueous solution at pH 5.8 containing 2 mg/ml glucosidase G5. This is a sufficient loading of glucosidase to effect complete hydrolysis of the relevant glucose moiety within 4 hours.
CBE was adjusted to pH of 6.0 to 6.2 with 2M sodium hydroxide and an equal volume added to the enzyme solution to prepare the reaction mix (i.e. 50% CBE concentration in reaction mix) and the concentration of glucosidase and/or rhamnosidase is shown in Tables 19 and 20. The reaction mix was heated to 35 degC for the time indicated in Tables 19 and 20, after which the reaction was quenched by addition of an equal volume of MeCN containing 2% acetic acid and shaken at room temperature for 10 mins prior to centrifugation (10 min, 4 degC) to remove particulates. Samples were analysed by UV HPLC using method of Experiment 4-4.
The change in composition of the Left, Middle and Right peaks is shown in Tables 19 and 20. The composition changes by the action of the enzymes depending on the presence or absence of the partner enzyme. The extent of reaction is proportional to the enzyme concentration and the reaction time under these conditions. The tables show data for enzyme concentrations and the reaction times providing for equivalent extents of reaction. The improvement resulting from the mutations introduced for each variant is equal to the fold change in enzyme concentration×time (i.e. fold improvement=(enzyme concentration×time) for preceding variant÷(enzyme concentration×time) for later variant). A cumulative fold improvement over the original enzyme variant is calculated by the product of the individual fold improvements.

[3] = R5 round: 35 deg C, 18 h, lysate 0.0625% v/v, CBE 75% v/v, 100 mM Sodium acetate pH 5.8
[4] = rhamnosidase 0.16 mg/ml, no glucosidase, 7 h
[5] = rhamnosidase 0.31 mg/ml + glucosidase G5 0.5 mg/ml, 4 h
[6] = R2 round: 20 deg C, 20 h, lysate 1.25% v/v, CBE 80% v/v, 100 mM Potassium phosphate pH 6
[7] = rhamnosidase 1.25 mg/ml + glucosidase G5 0.5 mg/ml, 7 h
[8] = rhamnosidase 1.25 mg/ml, no glucosidase, 7 h

B1: Variant R5: engineered rhamnosidase polypeptide, variant of Kribbella flavida rhamnosidase SEQ ID No. 1017 (protein)
chain: MSFPAAPARLRFEHRTDPGPVLGIGTATPRLSWQVPTAPDDYRQAGYEVEIARGDAAPEQYTVDSADQVLVPWPGTPLAARESATVRVRVRGDGDWSQWSDPATVEAGLLSADDWTARFVSPRENAGHEAPAPLIGGVIDLPPDIAQARLYATAHGIYEPTLNGTRVGDEQLAPGWTAYEQRLRYQTYDVTDLVAPGENRLELLVGNGWYRGRMSFHDGHSLYGDRLAVLAQLEVTTATGEVKVLASDGTWTTRETNVLADDLYDGQHVDLRRTLGEPGPVDVLDADLSLLVAPDGPPVRVTDVLPAKAVTTSPAGKTLVDFGQNVVGRLRLRVRGGAAGDEIVLRHAEVLEDGELCVRPLRTAKATDSFVLAGPDEVTLEPTLTFHGFRYAEITGVPDLRAEDVEAVVVGSDLRRTGWFESSHPLLDRFHENVVWGMRGNFLDVPTDCPQRDERLGWTGDIQVFSPTASFLFDTAGFLTNWLADLIAEQHKDGSVPFVVPDVLRQPSPATAAWGDAATIVPWVLYERTGDAGLLARQLPSMRAWVDRMAGLAGDDLLWVGGFQFGDWLDPTAPPDDPFRAKADPDVLATAHLARSAEVVALAAEVVGAGELAREYAELAARVRQAFAAEYTTASGRVLSDAATNYALALQWALLPTEAQRKRAGERLADLVRTAGFRISTGFVGTPLMCDALADSGHPDLAYRLLLETGCPSWLYAVTMDATTVWERWDSMLPDGSINPGQMTSFNHYALGAVADWMHRRVAGLAPGDPGYRRIVVDPLFTAHLTKASARHLTPYGEAAVAWSRSGGRVRLEVTVPVGARARVAVPGESAPVEVGHGTHEWTADDVYGETPPLPADATIRQLIDHEPSWTTLAAAATRTGIVADDAELAGRLERYLDHPATELVDAVSPRGFSPSAEALHAELDSVLGR
modifications: Seq ID No. 1017 with mutations A143P, L214M, G215S, G218D, K219G, G357C, G508S, G634A, A690C, Q921H
In the case of B1, the “% conversion (Right peak/Left Peak) (−neg control)” value [1, 3] is reported as 2.62%, the “Cumulative FIOP from WT” value [1, 3] is reported as 28.7 and the “Right Peak %” value ([1]; R5 round: 35 deg C, 18 h, lysate 0.0625% v/v, CBE 75% v/v, 100 mM Sodium acetate pH 5.8, negative control 26.23) is reported as 26.93%. For the same molecule, the “Left Peak %” value ([1]; R5 round: 35 deg C, 18 h, lysate 0.0625% v/v, CBE 75% v/v, 100 mM Sodium acetate pH 5.8, negative control 28.76) was 26.59%, the “Middle Peak %” value ([1]; R5 round: 35 deg C, 18 h, lysate 0.0625% v/v, CBE 75% v/v, 100 mM Sodium acetate pH 5.8, negative control 45.00) was 46.48% and the “% conversion (Right peak/Left Peak)” value ([1]; R5 round: 35 deg C, 18 h, lysate 0.0625% v/v, CBE 75% v/v, 100 mM Sodium acetate pH 5.8, negative control 47.70) was 50.32%. For the same molecule, the “FIOP (% area increase variant/pos control)” value ([1]; R5 round: 35 deg C, 18 h, lysate 0.0625% v/v, CBE 75% v/v, 100 mM Sodium acetate pH 5.8, positive control R4) was 1.3, the “time to complete hydrolysis of the relevant rhamnose moiety” value ([2]; 2 mg/ml rhamnosidase R5 solution (before mixing with glucosidase solution and CBE)) was no more than 4 h and the “cumulative fold improvement over WT rhamnosidase” value ([2]; from enzyme concentration x time for equivalent extent of reaction) was “approximately 30 fold”. For the same molecule, the “% change in Left Peak” value [2, 4] was −45%, the “% change in Middle Peak” value [2, 4] was 27% and the “% change in Right Peak” value [2, 4] was 106%. For the same molecule, the “Cumulative Fold improvement in primary enzyme loading × time” value [2, 4] was 31, the “Fold improvement in primary enzyme loading × time” value [2, 4] was 1.9 and the “% Right Peak” value [2, 4] was 28%. For the same molecule, the “% Left Peak” value [2, 4] was 17%, the “% Middle Peak” value [2, 4] was 56% and the “% change in Left Peak” value [2, 5] was −34%. For the same molecule, the “% change in Middle Peak” value [2, 5] was −93%, the “% change in Right Peak” value [2, 5] was 296% and the “Cumulative Fold improvement in primary enzyme loading × time” value [2, 5] was 27. For the same molecule, the “Fold improvement in primary enzyme loading × time” value [2, 5] was 1.7, the “% Right Peak” value [2, 5] was 77% and the “% Left Peak” value [2, 5] was 20%. The “% Middle Peak” value [2, 5] was 3%.

B2: Variant R2: engineered rhamnosidase polypeptide, variant of Kribbella flavida rhamnosidase SEQ ID No. 1017 (protein)
chain: B1 chain with S215G, D218G, C357G, S508G, A634G, C690A
modifications: Seq ID No. 1017 with mutations A143P, L214M, K219G, Q921H
For B2, the “% conversion (Right peak/Left Peak) (−neg control)” value [1, 6] was 1.09%, the “Cumulative FIOP from WT” value [1, 6] was 2.9 and the “Left Peak %” value ([1]; R2 round: 20 deg C, 20 h, lysate 1.25% v/v, CBE 80% v/v, 100 mM Potassium phosphate pH 6, negative control 23.63) was 22.76%. For the same molecule, the “Right Peak %” value ([1]; R2 round: 20 deg C, 20 h, lysate 1.25% v/v, CBE 80% v/v, 100 mM Potassium phosphate pH 6, negative control 26.10) was 26.27%, the “Middle Peak %” value ([1]; R2 round: 20 deg C, 20 h, lysate 1.25% v/v, CBE 80% v/v, 100 mM Potassium phosphate pH 6, negative control 50.27) was 50.97% and the “% conversion (Right peak/Left Peak)” value ([1]; R2 round: 20 deg C, 20 h, lysate 1.25% v/v, CBE 80% v/v, 100 mM Potassium phosphate pH 6, negative control 52.49) was 53.57%. The “FIOP (% area increase variant/pos control)” value ([1]; R2 round: 20 deg C, 20 h, lysate 1.25% v/v, CBE 80% v/v, 100 mM Potassium phosphate pH 6, positive control WT) was 2.9, the “% conversion (Right peak/Left Peak) (−neg control)” value ([1]; R3 round: 35 deg C, 18 h, lysate 0.4% v/v, CBE 75% v/v, 100 mM Sodium acetate pH 5.8) was 3.99% and the “Right Peak %” value ([1]; R3 round: 35 deg C, 18 h, lysate 0.4% v/v, CBE 75% v/v, 100 mM Sodium acetate pH 5.8, negative control 26.60) was 27.59%. For the same molecule, the “Left Peak %” value ([1]; R3 round: 35 deg C, 18 h, lysate 0.4% v/v, CBE 75% v/v, 100 mM Sodium acetate pH 5.8, negative control 28.91) was 25.57%, the “Middle Peak %” value ([1]; R3 round: 35 deg C, 18 h, lysate 0.4% v/v, CBE 75% v/v, 100 mM Sodium acetate pH 5.8, negative control 44.49) was 46.84% and the “% conversion (Right peak/Left Peak)” value ([1]; R3 round: 35 deg C, 18 h, lysate 0.4% v/v, CBE 75% v/v, 100 mM Sodium acetate pH 5.8, negative control 47.91) was 51.90%. The “% change in Left Peak” value [2, 7] was −40%, the “% change in Middle Peak” value [2, 7] was −96% and the “% change in Right Peak” value [2, 7] was 309%. The “Cumulative Fold improvement in primary enzyme loading × time” value [2, 7] was 4, the “Fold improvement in primary enzyme loading × time” value [2, 7] was 2.0 and the “% Right Peak” value [2, 7] was 80%. The “% Left Peak” value [2, 7] was 18%, the “% Middle Peak” value [2, 7] was 2% and the “% change in Left Peak” value [2, 8] was −39%. For the same molecule, the “% change in Middle Peak” value [2, 8] was 19%, the “% change in Right Peak” value [2, 8] was 113% and the “Cumulative Fold improvement in primary enzyme loading × time” value [2, 8] was 4. For the same molecule, the “Fold improvement in primary enzyme loading × time” value [2, 8] was 2.0, the “% Right Peak” value [2, 8] was 29% and the “% Left Peak” value [2, 8] was 18%. For the same molecule, the “% Middle Peak” value [2, 8] was 52%.
